Assay [1] has as its target mouse E-cadherin full-length ectodomains, W2A mutant (mouse). In words: high-speed atomic force microscopy.
The target in assay [2] is full-length ectodomains (EC1 to EC5) of mouse E-cadherin, wild type (mouse). Description: high-speed atomic force microscopy.

The stoichiometry N is a count of units in the complex or per binding partner.

On to “mouse E-cadherin full-length ectodomains, W2A mutant (domain or fragment)”, for which, in assay [1], the share of the observed dimers that are S-shaped was 45% and the share of the observed dimers that are cross-shaped (X-like dimer) amounted to 20%.

With “full-length ectodomains (EC1 to EC5) of mouse E-cadherin, wild type (domain or fragment)”, the stoichiometry N in assay [2] was 2.

These data come from PMC9335211.
